{"source": "patent CN107880130A", "about": "(SHENZHEN GUOCHUANG NANO ANTIBODY TECH CO LTD, dated 2018)", "binders": {"B1": {"name": "2D5 连接至带有恒定区的载体 (2D5 nanobody with constant region) (Fc fusion)", "chain": "ESGGGLVQAGGSLRLSCVASGRTFSSHPMGWFRQAPGKEREFVAGISWSGGSTHYADSVKGRFTISRDTAKNTVYLQMNSLKPEDTAVYYCNAALSERTPIATMPSQYDYWGQGT", "notes": "not shown: constant region from the vector"}}, "key": {"HE4": {"molecular_target": "T1, HE4 (UniProt Q14508 31-124)", "T1 sequence (looked up)": "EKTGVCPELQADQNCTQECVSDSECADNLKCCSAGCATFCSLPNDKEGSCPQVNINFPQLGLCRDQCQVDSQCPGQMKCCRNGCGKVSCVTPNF", "experiment": "SPR (Biacore T100), antibody captured by Protein A, antigen injected"}, "CEACAM1": {"molecular_target": "T2, CEACAM1 (UniProt P13688 35-428, limits assumed)", "T2 sequence (looked up)": "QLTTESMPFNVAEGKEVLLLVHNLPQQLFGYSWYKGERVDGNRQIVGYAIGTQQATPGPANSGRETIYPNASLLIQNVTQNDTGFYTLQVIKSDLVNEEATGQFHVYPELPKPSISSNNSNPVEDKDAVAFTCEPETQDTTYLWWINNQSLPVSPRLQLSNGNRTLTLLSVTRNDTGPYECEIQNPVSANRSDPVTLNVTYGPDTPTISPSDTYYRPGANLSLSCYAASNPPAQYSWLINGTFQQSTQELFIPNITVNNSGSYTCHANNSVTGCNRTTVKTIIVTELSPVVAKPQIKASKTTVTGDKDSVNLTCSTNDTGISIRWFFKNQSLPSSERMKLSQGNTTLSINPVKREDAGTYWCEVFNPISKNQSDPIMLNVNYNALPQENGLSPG", "experiment": "SPR (Biacore T100), antibody captured by Protein A, antigen injected"}, "CEACAM3": {"molecular_target": "T3, CEACAM3 (UniProt P40198 35-155, limits assumed)", "T3 sequence (looked up)": "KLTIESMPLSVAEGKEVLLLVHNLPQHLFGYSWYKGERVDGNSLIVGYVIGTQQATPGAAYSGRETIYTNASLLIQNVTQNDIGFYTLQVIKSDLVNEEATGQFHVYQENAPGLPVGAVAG", "experiment": "SPR (Biacore T100), antibody captured by Protein A, antigen injected"}, "CEACAM6": {"molecular_target": "T4, CEACAM6 (UniProt P40199 35-320, limits assumed)", "T4 sequence (looked up)": "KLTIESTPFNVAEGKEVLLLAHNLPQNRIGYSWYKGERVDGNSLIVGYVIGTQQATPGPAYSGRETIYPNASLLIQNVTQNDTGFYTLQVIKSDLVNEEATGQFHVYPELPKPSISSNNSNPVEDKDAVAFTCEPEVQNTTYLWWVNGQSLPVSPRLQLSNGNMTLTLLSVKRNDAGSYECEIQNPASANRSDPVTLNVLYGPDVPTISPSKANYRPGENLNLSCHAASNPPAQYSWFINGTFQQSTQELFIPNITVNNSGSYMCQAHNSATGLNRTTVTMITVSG", "experiment": "SPR (Biacore T100), antibody captured by Protein A, antigen injected"}, "CEACAM8": {"molecular_target": "T5, CEACAM8 (UniProt P31997 35-320, limits assumed)", "T5 sequence (looked up)": "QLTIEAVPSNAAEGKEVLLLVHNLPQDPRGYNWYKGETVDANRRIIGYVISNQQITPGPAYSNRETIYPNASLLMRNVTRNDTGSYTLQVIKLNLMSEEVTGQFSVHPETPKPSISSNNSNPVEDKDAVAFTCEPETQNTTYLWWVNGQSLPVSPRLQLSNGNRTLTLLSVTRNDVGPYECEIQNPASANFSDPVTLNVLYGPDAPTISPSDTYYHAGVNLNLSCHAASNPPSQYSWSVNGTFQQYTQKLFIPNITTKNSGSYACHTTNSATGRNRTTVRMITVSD", "experiment": "SPR (Biacore T100), antibody captured by Protein A, antigen injected"}, "AFP": {"molecular_target": "T6, AFP (UniProt P02771 19-609)", "T6 sequence (looked up)": "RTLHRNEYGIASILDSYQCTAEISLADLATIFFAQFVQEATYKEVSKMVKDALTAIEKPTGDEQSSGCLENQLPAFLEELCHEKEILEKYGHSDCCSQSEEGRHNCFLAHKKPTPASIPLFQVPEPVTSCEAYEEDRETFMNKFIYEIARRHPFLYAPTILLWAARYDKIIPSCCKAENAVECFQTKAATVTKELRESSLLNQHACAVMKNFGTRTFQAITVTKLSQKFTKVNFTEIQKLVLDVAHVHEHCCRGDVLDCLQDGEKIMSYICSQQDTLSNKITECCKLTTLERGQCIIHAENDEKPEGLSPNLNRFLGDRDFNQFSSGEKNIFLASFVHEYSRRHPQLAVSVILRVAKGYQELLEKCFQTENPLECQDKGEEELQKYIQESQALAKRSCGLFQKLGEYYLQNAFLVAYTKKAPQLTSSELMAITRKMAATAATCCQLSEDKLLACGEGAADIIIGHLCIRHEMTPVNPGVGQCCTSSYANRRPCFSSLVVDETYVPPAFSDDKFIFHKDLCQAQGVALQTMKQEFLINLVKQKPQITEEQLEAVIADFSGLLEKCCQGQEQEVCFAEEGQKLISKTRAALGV", "experiment": "SPR (Biacore T100), antibody captured by Protein A, antigen injected"}, "癌胚抗原 (CEA, CEACAM5)": {"molecular_target": "癌胚抗原 (CEA, CEACAM5) (UniProt P06731)", "experiment": "SPR (Biacore T100), antibody captured by Protein A, antigen injected at 100μg/ml"}}, "data": [{"binder": "B1", "values": [{"measurement": "binding result", "setting": "HE4", "value": "no binding (tested: 100μg/ml)"}, {"measurement": "binding result", "setting": "CEACAM1", "value": "no binding (tested: 100μg/ml)"}, {"measurement": "binding result", "setting": "CEACAM3", "value": "no binding (tested: 100μg/ml)"}, {"measurement": "binding result", "setting": "CEACAM6", "value": "no binding (tested: 100μg/ml)"}, {"measurement": "binding result", "setting": "CEACAM8", "value": "no binding (tested: 100μg/ml)"}, {"measurement": "binding result", "setting": "AFP", "value": "no binding (tested: 100μg/ml)"}, {"measurement": "结合 (SPR binding response)", "setting": "癌胚抗原 (CEA, CEACAM5)", "value": 53.3}]}]}
